This note sets out measurements from publication PMC4330390 (Nucleic Acids Research, 2015).

The test system of data set [1] is NXF1ΔNΔUBA+3A;NXT1 (p15) (Homo sapiens;Homo sapiens). As to the kind of experiment: ITC. For orientation: ITC needs no label: the signal is the heat of the interaction.
Data set [2] deals with the molecule itself. As to the kind of experiment: crystal structure; crystals of the purified NXF1^ΔNΔUBA:NXT1 complex, 18°C, 9% PEG 6000, 1 M LiCl, 0.1 M Na citrate pH 5.1; P1, 3.4 Å, two copies of the complex in the asymmetric unit.

full-length CTE-RNA registered a binding signal (fold weaker than wild type) in data set [1] of 2.5.

B1: NXF1^ΔNΔUBA:NXT1 complex (complex, human)
chain 1: VRRDRAPPERGGAGTSQDGTSKNWFKITIPYGRKYDKAWLLSMIQSKCSVPFTPIEFHYENTRAQFFVEDASTASALKAVNYKILDRENRRISIIINSSAPPHTILNELKPEQVEQLKLIMSKRYDGSQQALDLKGLRSDPDLVAQNIDVVLNRRSCMAATLRIIEENIPELLSLNLSNNRLYRLDDMSSIVQKAPNLKILNLSGNELKSERELDKIKGLKLEELWLDGNSLCDTFRDQSTYISAIRERFPKLLRLDGHELPPPIAFDVEAPTTLPPCKGSYFGTENLKSLVLHFLQQYYAIYDSGDRQGLLDAYHDGACCSLSIPFIPQNPARSSLAEYFKDSRNVKKLKDPTLRFRLLKHTRLNVVAFLNELPKTQHDVNSFVVDISAQTSTLLCFSVNGVFKEVDGKSRDSLRAFTRTFIAVPASNSGLCIVNDELFVRNASSEEIQRAFAMPAPTP
chain 2: ASVDFKTYVDQACRAAEEFVNVYYTTMDKRRRLLSRLYMGTATLVWNGNAVSGQESLSEFFEMLPSSEFQISVVDCQPVHDEATPSQTTVLVVICGSVKFEGNKQRDFNQNFILTAQASPSNTVWKIASDCFRFQDWAS
notes: also called NXF1:NXT1; TAP:p15
As to B1, the stoichiometry N (commonly the number of molecules, sites or subunits per partner or assembly) in data set [2] was found to be 2.
